Several values for one entry are separate records, joined by “and”; a condition that tells them apart may be missing. Equal entries are not always repeated.
How the values were obtained:
DR5sh139-166ECDdelHis = biological target: T1, DR5sh139-166ECDdelHis (human/mouse chimeric); assay: ECLIA, coated DR5sh139-166ECDdelHis, detection with SULFO-TAG anti-human IgG
T1 construct: also called DR5sh139-166ECDdel-FcRbHisCtag
T1 chain: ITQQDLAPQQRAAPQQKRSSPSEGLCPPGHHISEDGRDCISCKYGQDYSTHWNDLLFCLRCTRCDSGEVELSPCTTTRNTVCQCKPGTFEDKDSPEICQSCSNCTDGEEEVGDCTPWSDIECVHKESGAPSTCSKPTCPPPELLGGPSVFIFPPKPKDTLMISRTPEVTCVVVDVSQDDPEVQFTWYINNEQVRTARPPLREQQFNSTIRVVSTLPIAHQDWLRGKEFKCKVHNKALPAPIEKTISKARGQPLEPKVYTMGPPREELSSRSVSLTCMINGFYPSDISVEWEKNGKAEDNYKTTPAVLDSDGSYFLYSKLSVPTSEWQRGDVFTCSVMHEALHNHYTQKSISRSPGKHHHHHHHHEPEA

[1] = biological target: T2, Cyno DR5Mfdel-K420N (cynomolgus monkey DR5 with deletion of amino acids 185-213 and death domain … (cynomolgus monkey)); assay: flow cytometry on CHO-S cells transiently expressing cynomolgus monkey DR5; average of n = 4, SD in brackets
T2 construct: Transiently expressed on the membrane of CHO-S cells; Based on NCBI XP_005562887.1
T2 chain: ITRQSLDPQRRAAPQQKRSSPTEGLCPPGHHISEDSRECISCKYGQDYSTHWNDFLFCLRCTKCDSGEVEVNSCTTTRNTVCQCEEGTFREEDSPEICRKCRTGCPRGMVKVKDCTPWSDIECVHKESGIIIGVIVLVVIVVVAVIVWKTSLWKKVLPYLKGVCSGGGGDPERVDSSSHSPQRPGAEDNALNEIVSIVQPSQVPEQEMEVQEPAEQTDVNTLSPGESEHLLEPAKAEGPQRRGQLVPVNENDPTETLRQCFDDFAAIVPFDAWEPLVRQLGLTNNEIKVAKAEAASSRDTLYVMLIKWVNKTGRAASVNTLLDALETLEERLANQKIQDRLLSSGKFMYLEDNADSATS

DR5sh79-115ECDdelHis = biological target: T3, DR5sh79-115ECDdelHis (human/mouse chimeric); assay: ECLIA, coated DR5sh79-115ECDdelHis, detection with SULFO-TAG anti-human IgG
T3 construct: also called DR5sh79-115ECDdel-FcRbHisCtag

B1: IgG1-hDR5-01-G56T-E430G (antibody, V domains shown)
VH: EVQLQQSGAEVVKPGASVKLSCKASGFNIKDTFIHWVKQAPGQGLEWIGRIDPANTNTKYDPKFQGKATITTDTSSNTAYMELSSLRSEDTAVYYCVRGLYTYYFDYWGQGTLVTVSS
VL: EIVMTQSPATLSVSPGERATLSCRASQSISNNLHWYQQKPGQAPRLLIKFASQSITGIPARFSGSGSGTEFTLTISSLQSEDFAVYYCQQGNSWPYTFGQGTKLEIKR
notes: also called first antibody; component of HexaBody-DR5/DR5
binding result (DR5sh139-166ECDdelHis): no binding | EC50 [1]: 0.27 µg/mL and 1.77 nM

B2: IgG1-hDR5-05-E430G (antibody, V domains shown)
VH: QVQLVQSGAEVKKPGASVKVSCKASGFNIKDTHMHWVRQAPGQRLEWIGRIDPANGNTEYDQKFQGRVTITVDTSASTAYMELSSLRSEDTAVYYCARWGTNVYFAYWGQGTLVTVSS
VL: DIQLTQSPSSLSASVGDRVTITCSASSSVSYMYWYQQKPGKAPKPWIYRTSNLASGVPSRFSGSGSGTDFTLTISSLQPEDFATYYCQQYHSYPPTFGGGTKVEIKR
notes: also called second antibody; component of HexaBody-DR5/DR5
EC50 [1]: 0.17 µg/mL and 1.16 nM | binding result (DR5sh79-115ECDdelHis): no binding

From patent US20230293680A1 (Genmab, published 2023)
